According to IntAct's records for PubMed 32172343:

B1: Phospholipid-transporting ATPase VB (Homo sapiens), O94823-1 (parent)
chain: MALSVDSSWHRWQWRVRDGFPHCPSETTPLLSPEKGRQSYNLTQQRVVFPNNSIFHQDWEEVSRRYPGNRTCTTKYTLFTFLPRNLFEQFHRWANLYFLFLVILNWMPSMEVFHREITMLPLAIVLFVIMIKDGMEDFKRHRFDKAINCSNIRIYERKEQTYVQKCWKDVRVGDFIQMKCNEIVPADILLLFSSDPNGICHLETASLDGETNLKQRCVVKGFSQQEVQFEPELFHNTIVCEKPNNHLNKFKGYMEHPDQTRTGFGCESLLLRGCTIRNTEMAVGIVIYAGHETKAMLNNSGPRYKRSKIERRMNIDIFFCIGILILMCLIGAVGHSIWNGTFEEHPPFDVPDANGSFLPSALGGFYMFLTMIILLQVLIPISLYVSIELVKLGQVFFLSNDLDLYDEETDLSIQCRALNIAEDLGQIQYIFSDKTGTLTENKMVFRRCTIMGSEYSHQENAKRLETPKELDSDGEEWTQYQCLSFSARWAQDPATMRSQKGAQPLRRSQSARVPIQGHYRQRSMGHRESSQPPVAFSSSIEKDVTPDKNLLTKVRDAALWLETLSDSRPAKASLSTTSSIADFFLALTICNSVMVSTTTEPRQRVTIKPSSKALGTSLEKIQQLFQKLKLLSLSQSFSSTAPSDTDLGESLGANVATTDSDERDDASVCSGGDSTDDGGYRSSMWDQGDILESGSGTSLEEALEAPATDLARPEFCYEAESPDEAALVHAAHAYSFTLVSRTPEQVTVRLPQGTCLTFSLLCTLGFDSVRKRMSVVVRHPLTGEIVVYTKGADSVIMDLLEDPACVPDINMEKKLRKIRARTQKHLDLYARDGLRTLCIAKKVVSEEDFRRWASFRREAEASLDNRDELLMETAQHLENQLTLLGATGIEDRLQEGVPDTIATLREAGIQLWVLTGDKQETAVNIAHSCRLLNQTDTVYTINTENQETCESILNCALEELKQFRELQKPDRKLFGFRLPSKTPSITSEAVVPEAGLVIDGKTLNAIFQGKLEKKFLELTQYCRSVLCCRSTPLQKSMIVKLVRDKLRVMTLSIGDGANDVSMIQAADIGIGISGQEGMQAVMSSDFAITRFKHLKKLLLVHGHWCYSRLARMVVYYLYKNVCYVNLLFWYQFFCGFSSSTMIDYWQMIFFNLFFTSLPPLVFGVLDKDISAETLLALPELYKSGQNSECYNLSTFWISMVDAFYQSLICFFIPYLAYKGSDIDVFTFGTPINTISLTTILLHQAMEMKTWTIFHGVVLLGSFLMYFLVSLLYNATCVICNSPTNPYWVMEGQLSNPTFYLVCFLTPVVALLPRYFFLSLQGTCGKSLISKAQKIDKLPPDKRNLEIQSWRSRQRPAPVPEVARPTHHPVSSITGQDFSASTPKSSNPPKRKHVEESVLHEQRCGTECMRDDSCSGDSSAQLSSGEHLLGPNRIMAYSRGQTDMCRCSKRSSHRRSQSSLTI
partner: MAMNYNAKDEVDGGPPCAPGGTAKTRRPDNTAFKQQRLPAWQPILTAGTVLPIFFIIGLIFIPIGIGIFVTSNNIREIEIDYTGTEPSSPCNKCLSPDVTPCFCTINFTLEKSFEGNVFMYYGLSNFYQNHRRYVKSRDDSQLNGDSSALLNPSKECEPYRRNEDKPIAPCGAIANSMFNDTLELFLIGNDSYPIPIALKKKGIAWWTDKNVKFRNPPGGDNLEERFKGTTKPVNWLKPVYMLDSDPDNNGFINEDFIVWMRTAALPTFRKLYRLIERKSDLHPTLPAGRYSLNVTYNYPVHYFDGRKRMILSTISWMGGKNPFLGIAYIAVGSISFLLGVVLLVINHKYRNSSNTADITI

Variants of: B1
Conditions: with TMEM30A

Variant	effect of a mutation on the interaction
I1038T	with no effect
E993A	with no effect
G671R;N865K	with no effect
V48L	with no effect
E210A	with no effect
